According to article PMC5493754, “Myosin 7 and its adaptors link cadherins to actin” (Nature Communications, 2017):

Tests used:
Assay in all cases: MST; YFP-fused partner constant at 100 nM, non-fluorescent protein titrated (16 two-fold dilutions); 20 mM Hepes pH 7.0, 100 mM NaCl, 1 mM EGTA, 0.5 mM TCEP, 0.05% Tween 20; Monolith NT.115
Conditions in all cases: both partners purified
[1] = target: T1, Myo7a MF2 G2163S (deafness mutant) (human, UniProt Q13402-1 1702-2215, G2163S)
T1 construct: Myosin 7a, human, MF2, residues 1702-2215 of UniProt Q13402-1, with a deafness missense mutation; source: E. coli, purified similarly as wild type (Histrap, CaptoQ, gel filtration)
T1 sequence (looked up): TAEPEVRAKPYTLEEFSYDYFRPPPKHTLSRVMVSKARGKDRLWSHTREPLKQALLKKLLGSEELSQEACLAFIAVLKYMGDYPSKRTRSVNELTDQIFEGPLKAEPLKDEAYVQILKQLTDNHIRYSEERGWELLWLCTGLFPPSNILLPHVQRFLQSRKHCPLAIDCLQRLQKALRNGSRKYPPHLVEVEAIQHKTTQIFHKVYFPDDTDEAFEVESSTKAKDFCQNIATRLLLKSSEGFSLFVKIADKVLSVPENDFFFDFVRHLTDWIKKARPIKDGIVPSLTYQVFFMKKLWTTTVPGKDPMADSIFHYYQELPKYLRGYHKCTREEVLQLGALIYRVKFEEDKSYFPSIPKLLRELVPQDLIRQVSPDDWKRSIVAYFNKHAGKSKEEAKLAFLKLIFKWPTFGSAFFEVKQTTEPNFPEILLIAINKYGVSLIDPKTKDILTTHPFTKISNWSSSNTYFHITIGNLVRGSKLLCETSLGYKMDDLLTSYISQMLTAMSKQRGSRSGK

[2] = target: T2, Myo7a MF2 K2118N (deafness mutant) (human, UniProt Q13402-1 1702-2215, K2118N)
T2 construct: Myosin 7a, human, MF2, residues 1702-2215 of UniProt Q13402-1, with a deafness missense mutation; source: E. coli, purified similarly as wild type (Histrap, CaptoQ, gel filtration)
T2 sequence (looked up): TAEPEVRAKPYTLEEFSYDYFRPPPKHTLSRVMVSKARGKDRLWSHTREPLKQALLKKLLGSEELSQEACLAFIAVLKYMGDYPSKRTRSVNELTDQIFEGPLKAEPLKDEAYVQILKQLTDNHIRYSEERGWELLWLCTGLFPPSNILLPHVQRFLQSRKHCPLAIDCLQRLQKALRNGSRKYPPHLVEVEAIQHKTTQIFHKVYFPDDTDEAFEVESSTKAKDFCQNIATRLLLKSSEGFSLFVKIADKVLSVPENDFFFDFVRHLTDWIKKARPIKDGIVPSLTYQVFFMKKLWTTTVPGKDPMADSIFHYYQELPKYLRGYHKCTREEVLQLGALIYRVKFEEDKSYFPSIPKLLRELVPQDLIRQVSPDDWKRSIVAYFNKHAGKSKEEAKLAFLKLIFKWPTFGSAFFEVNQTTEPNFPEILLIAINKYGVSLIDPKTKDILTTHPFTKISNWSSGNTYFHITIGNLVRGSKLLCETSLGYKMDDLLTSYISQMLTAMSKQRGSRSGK

[3] = target: T3, Myo7a MF2 G1982R (deafness mutant) (human, UniProt Q13402-1 1702-2215, G1982R)
T3 construct: Myosin 7a, human, MF2, residues 1702-2215 of UniProt Q13402-1, with a deafness missense mutation; source: E. coli, purified similarly as wild type (Histrap, CaptoQ, gel filtration)
T3 sequence (looked up): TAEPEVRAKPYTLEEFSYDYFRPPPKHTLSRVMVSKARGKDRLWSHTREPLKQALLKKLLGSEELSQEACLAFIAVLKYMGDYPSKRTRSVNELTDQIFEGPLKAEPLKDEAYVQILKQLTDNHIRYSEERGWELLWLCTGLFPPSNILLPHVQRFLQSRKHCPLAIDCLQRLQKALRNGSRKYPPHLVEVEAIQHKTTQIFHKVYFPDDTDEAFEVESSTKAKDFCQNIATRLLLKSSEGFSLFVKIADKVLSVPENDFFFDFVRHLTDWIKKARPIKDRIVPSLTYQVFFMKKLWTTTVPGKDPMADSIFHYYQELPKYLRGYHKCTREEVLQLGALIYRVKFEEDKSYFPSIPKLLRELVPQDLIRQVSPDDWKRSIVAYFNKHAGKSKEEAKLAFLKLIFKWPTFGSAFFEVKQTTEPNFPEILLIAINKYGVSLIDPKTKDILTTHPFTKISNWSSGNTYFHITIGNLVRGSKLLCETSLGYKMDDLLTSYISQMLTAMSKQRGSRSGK

[4] = target: T4, Myo7a MF2 G1982E (deafness mutant) (human, UniProt Q13402-1 1702-2215, G1982E)
T4 construct: Myosin 7a, human, MF2, residues 1702-2215 of UniProt Q13402-1, with a deafness missense mutation; source: E. coli, purified similarly as wild type (Histrap, CaptoQ, gel filtration)
T4 sequence (looked up): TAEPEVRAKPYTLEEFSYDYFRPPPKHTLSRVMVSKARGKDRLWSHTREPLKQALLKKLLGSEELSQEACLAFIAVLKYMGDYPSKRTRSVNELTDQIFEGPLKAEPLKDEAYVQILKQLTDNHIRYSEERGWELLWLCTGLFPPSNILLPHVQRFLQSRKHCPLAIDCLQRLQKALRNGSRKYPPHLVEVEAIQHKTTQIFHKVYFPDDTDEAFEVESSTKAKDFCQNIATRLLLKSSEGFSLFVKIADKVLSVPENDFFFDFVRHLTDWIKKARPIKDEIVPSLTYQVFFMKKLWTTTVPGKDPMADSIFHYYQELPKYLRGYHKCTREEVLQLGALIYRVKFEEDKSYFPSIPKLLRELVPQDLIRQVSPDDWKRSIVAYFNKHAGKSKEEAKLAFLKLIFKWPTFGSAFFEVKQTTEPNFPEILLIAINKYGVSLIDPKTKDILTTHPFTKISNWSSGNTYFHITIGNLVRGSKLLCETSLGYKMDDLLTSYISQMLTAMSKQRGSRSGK

- Kd [1]: > 60 µM
- Kd [2]: > 60 µM
- Kd [3]: > 60 µM
- Kd [4]: > 60 µM
B1: YFP-Harmonin-a PDZ3c (domain or fragment, human, UniProt Q9Y6N9-1 428-552, looked up)
chain: QDFRKYEEGFDPYSMFTPEQIMGKDVRLLRIKKEGSLDLALEGGVDSPIGKVVVSAVYERGAAERHGGIVKGDEIMAINGKIVTDYTLAEAEAALQKAWNQGGDWIDLVVAVCPPKEYDDELTFF
notes: Harmonin-a1 (USH1C), human, residues 428-552 of UniProt Q9Y6N9-1; also called ^YFPPDZ3c (isoA); source: E. coli BL21 (DE3) Rosetta, purified (Glutathione Sepharose 4B, size-exclusion chromatography)
